# Measured values from patent publication US20260258115A1 (MAPP BIOPHARMACEUTICAL, published 2026).
# Positions count from the first letter of the chain named.
# B1: ADI-19495 (antibody, V domains shown)
# VH: QVQLQESGPGLVKPSETLSLTCTVSGGSISSYYWSWIRQPPGKGLEWIGYIYTSGSTNYNPSLKSRVTISVDTSKNQFSLKLSSVTAADTAVYYCARVGSYYDLQHWGQGTLVTVSS
# VL: DIQLTQSPSSVSASVGDRVTITCRASQGISSWLAWYQQKPGKAPKLLIYAASSLQSGVPSRFSGSGSGTDFTLTISSLQPEDFATYYCQQANSFPLTFGGGTKVEIK
# B2: ADI-19496 (antibody, V domains shown)
# VH: EVQLVESGGGVVQPGGSLRLSCAASGFTFSSYGMHWVRQAPGKGLEWVAFIRYDGSNKYYADSVKGRFTISRDNSKSTLYLQMNSLRAEDTAVYYCAKDATFGYSSSWYNFDYWGQGTLVTVSS
# VL: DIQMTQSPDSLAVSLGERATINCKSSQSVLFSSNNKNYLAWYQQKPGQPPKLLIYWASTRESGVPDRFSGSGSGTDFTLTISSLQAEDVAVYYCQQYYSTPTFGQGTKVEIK
# notes: full-length IgG; also called Ab 198
# B3: ADI-19500 (antibody, V domains shown)
# VH: EVQLVESGGGLVQPGGSLRLSCAASGFTFSSYSMNWVRQAPGKGLEWVSYISSSSSTIYYADSVKGRFTISRDNAKNSLYLQMNSLRAEDTAVYYCARGNTVTTFLDYWGQGTLVTVSS
# VL: DIRLTQSPSSFSASTGDRVTITCRASQGISSYLAWYQQKPGKAPKLLIYAASTLQSGVPSRFSGSGSGTDFTLTISCLQSEDFATYYCQQYYSYPPLTFGGGTKVDIK
# notes: full-length IgG
# B4: ADI-19491 (antibody, V domains shown)
# VH: QVQLVQSGPTLVKPTQTLTLTCTFSGFSLSTSGVGVGWIRQPPGKALEWLALIYWDDDKRYSPSLKSRLTITKDTSKNQVVLTMTNMDPVDTATYYCAHRRATTVTTGYFDYWGQGTLVTVSS
# VL: QSVLTQPPSVSGAPGQRVTISCTGSSSNIGAGYDVHWYQQLPGTAPKLLIYGNSNRPSGVPDRFSGSKSGTSASLAITGLQAEDEADYYCQSYDSSLSGHYVFGTGTKVTVL
# notes: full-length IgG
# B5: ADI-25548 (antibody, V domains shown)
# VH: EVQLVESGGGLIQPGGSLRLSCAASGFTVSSNYMSWVRQAPGKGLEWVSVIYSGGSTYYADSVKGRFTISRDNSKNTLYLQMNSLRAEDTAVYYCARGPQFGVSYSSGWYSFDYWGQGTLVTVSS
# VL: QSVLIQPRSVSGSPGQSVTISCTGTSSDVGGYNYVSWYQQHPGKAPKLMIYDVSKRPSGVPDRFSGSKSGNTASLTISGLQAEDEADYYCCSYAGSYTFVVFGGGTKLTVL
# notes: full-length IgG
# B6: ADI-19502 (antibody, V domains shown)
# VH: EVQLVESGGGVVQPGGSLRLSCAASGFTFSSDGMHWVRQAPGKGLEWVAFIQYDGTNKYYVDSVKGRFTISRDNSKNTLYLQMNSLRAEDTAVYYCAKDQGFRYSSSWYAFDIWGQGTMVTVSS
# VL: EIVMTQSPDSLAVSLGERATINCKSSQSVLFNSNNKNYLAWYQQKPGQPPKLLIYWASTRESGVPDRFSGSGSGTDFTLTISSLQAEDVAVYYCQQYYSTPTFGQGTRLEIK
# notes: full-length IgG
# B7: ADI-24823 (antibody, V domains shown)
# VH: EVQLLESGGGLVKPGGSLRLSCAASGFTFSSYSMNWVRQAPGKGLEWVSSISSSSSYIYYADSVKGRFTISRDNAKNSLYLQMNSLRAEDTAVYYCAREGDYYGSGRPFDYWGQGTLVTVSS
# VL: QSVVTQPPSVSGAPGQRVTISCTGSSSNIGAGYDVHWYQQLPGTAPKLLIYGNSNRPSGVPDRFSGSKSGTSASLAITGLQAEDEADYYCQSYDSSLSVVFGGGTKLTVL
# notes: full-length IgG
# B8: ADI-22765 (antibody, V domains shown)
# VH: EVQLVESGGGLVKPGGSLRLSCAASGFTFSSYSMNWVRQAPGKGLEWVSSISSSSSYIYYADSVKGRFTISRDNAKNSLYLQMNSLRAEDTAVYYCARDRGDGYNYDYWGQGTLVTVSS
# VL: B7 VL with S2P, V4L, L107V
# notes: full-length IgG
# B9: ADI-19469 (antibody, V domains shown)
# VH: QVQLQESGPGLVKPSETLSLTCAVSGYSISSGYYWGWIRQPPGKGLEWIGSIYHSGSTYYNPSLKSRVTISVDTSKNQFSLKLSSVTAADTAVYYCARWTVMYYFDYWGQGTLVTVSS
# VL: EIVMTQSPATLSLSPGERATLSCRASQSVSSYLAWYQQKPGQAPRLLIYDASNRATGIPARFSGSGSGTDFTLTISSLEPEDFAVYYCQQRSNWPTFGGGTKLEIK
# notes: full-length IgG
# B10: ADI-24845 (antibody, V domains shown)
# VH: EVQLVESGGGLVKPGGSLRLSCAASGFTFSSYSMNWVRQAPGKGLEWVSSISSSSSYIYYADSVKGRFTISRDNAKNSLYLQMNSLRAEDTAVYYCARDYCSGGSCYLAAFDIWGQGTTVTVSS
# VL: QPVLTQPASVSGSPGQSITISCTGTSSDVGGYNYVSWYQQHPGKAPKLMIYEVSNRPSGVSNRFSGSKSGNTASLTISGLQAEDEADYYCSSYTSSSTPVVFGGGTKLTVL
# notes: full-length IgG
# B11: ADI-22776 (antibody, V domains shown)
# VH: EVQLLESGGGLVKPGGSLRLSCAASGFTFSDYYMSWIRQAPGKGLEWVSYISSSGSTIYYADSVKGRFTISRDNAKNSLYLQMNSLRAEDTAVYYCAREIGGSYTGGAFDIWGQGTMVTVSS
# VL: SYELTQPPSVSVAPGQTARITCGGNNIGSKSVHWYQQKPGQAPVLVVYDDSDRPSGIPERFSGSNSGNTATLTISRVEAGDEADYYCQVWDSSSDHVVFGGGTKVTVL
# notes: full-length IgG
# B12: ADI-22769 (antibody, V domains shown)
# VH: QVQLVQSGGGLVQPGGSLRLSCAASGFTFSDHYMDWVRQAPGKGLEWVGRTRNKANSYTTEYAASVKGRFTISRDDSKNSLYLQMNSLKTEDTAVYYCARVGYYYYYGMDVWGQGTTVTVSS
# VL: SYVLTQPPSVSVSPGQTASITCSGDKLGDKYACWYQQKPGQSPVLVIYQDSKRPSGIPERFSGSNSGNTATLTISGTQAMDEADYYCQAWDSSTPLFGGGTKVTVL
# notes: full-length IgG
# B13: ADI-24795 (antibody, V domains shown)
# VH: EVQLVESGGGLVKPGGSLRLSCAASGFTFSSYSMNWVRQAPGKGLEWVSSISSSSSYIYYADSVKGRFTISRDNAKNSLYLQMNSLRAEDTAVYYCARVGYSSSSGAFDYWGQGTLVTVSS
# VL: QSVLTQPPSVSGAPGQRVTISCTGSSSNIGAGYDVHWYQQLPGTAPKLLIYGNSNRPSGVPDRFSGSKSGTSASLAITGLQAEDEADYYCQSYDSSLSGSVFGGGTKVTVL
# notes: full-length IgG; also called Ab 363
# B14: ADI-22758 (antibody, V domains shown)
# VH: QVQLVESGGGLVKPGGSLRLSCAASGFSISSYSMNWVRQAPGKGLEWVSSISGSSSYIYYGDSVKGRFTISRDNARNSLYLQMNSLRAEDTAVYYCARGDIAAAGTITYYFAHWGQGTLVTVSS
# VL: B13 VL with P42T, Y51F, S54N, S100A, K107Q, V108L
# notes: full-length IgG
# B15: ADI-19473 (antibody, V domains shown)
# VH: EVQLVESGAEVKKPGESLKISCKGSGYSFTSYWIGWVRQMPGKGLEWMGIIYPGDSDTRYSPSFQGQVTISADKSISTAYLQWSSLKASDTAMYYCARLIAAAGIDYWGQGTLVTVSS
# VL: NFMLTQPHSVSESPGKTVTISCTRSSGSIASNYVQWYQQRPGSSPTTVIYEDNQRPSGVPDRFSGSIDSSSNSASLTISGLKTEDEADYYCQSYDSSNIWVFGGGTKVTVL
# notes: full-length IgG
# B16: ADI-19492 (antibody, V domains shown)
# VH: QVQLVQSGAEVKKPGESLKISCKGSGYRFTSYWIGWVRQMPGKGLEWMGIIYPGDSDTRYSPSFQGQVTISADKSISTAYLQWSSLKASDTAMYYCARSGSHYAFDLWGQGTMVTVSS
# VL: B15 VL with S28N, I49L, I99P, V108L
# notes: full-length IgG
# B17: ADI-19499 (antibody, V domains shown)
# VH: EVQLLESGPGLVKPSETLSLTCTVSGGSISSSSYYWGWIRQPPGKGLEWIGSIYYSGSTYYNPSLKSRVTISVDTSKNQFSLKLSSVTAADTAVYYCAVLLYSSSSFDYWGQGTLVTVSS
# VL: B15 VL with I99Q, W100A, K107Q, V108L
# notes: full-length IgG; also called Ab 201
# B18: ADI-25468 (antibody, V domains shown)
# VH: QVQLVQSGAEVKKPGESLKISCKGSGYSFTSYWIGWVRQMPGKGLEWMGIIYPGDSDTRYSPSFQGQVTISADKSISTAYLQWSSLKASDTAMYYCARHVGQVYCSSTSCYTSREYYFDYWGQGTLVTVSS
# VL: not shown
# notes: full-length IgG
# B19: ADI-25598 (antibody, V domains shown)
# VH: QVQLQESGPGLVKPSETLSLTCTVSPPSISSSSYYWGWIRQPPGKGLEWIGSIYYSGSTYYNPSLKSRVTISVDTSKNQFSLKLSSVTAADTAVYYCARPDSSGAFDIWGQGTMVTVSS
# VL: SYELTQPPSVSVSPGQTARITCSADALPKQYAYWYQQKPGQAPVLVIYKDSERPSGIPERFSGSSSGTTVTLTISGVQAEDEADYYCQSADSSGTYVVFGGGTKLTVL
# notes: full-length IgG
# B20: ADI-19471 (antibody, V domains shown)
# VH: EVQLVESGGGLVQPGGSLRLSCSASGFTFSSYAMHWVRQAPGKGLEYVSAISSNGGSTYYADSVKGRFTISRDNSKNTLYLQMSSLRAEDTAVYYCVKADQGSSGWFPDYWGQGTLVTVSS
# VL: NFMLTQPHSVSESPGKTVTISCTRSSGSIASNYVQWYQQRPGSSPTTVIYEDNQRPSGVPDRFSGSIDSSSNSASLTISGLKTEDEADYYCQSYDSSNWVFGGGTKLTVL
# notes: full-length IgG
# B21: ADI-19474 (antibody, V domains shown)
# VH: QVQLVQSGAEVKKPGESLKISCKGSGYSFTSYWIGWVRQMPGKGLEWMGIIYPGDSDTRYSPSFQGQVTISADKSISTAYLQWSSLKASDTAMYYCARPYSGSYYAFDIWGQGTTVTVSS
# VL: B20 VL with W99Q
# notes: full-length IgG
# B22: ADI-24858 (antibody, V domains shown)
# VH: EVQLLESGGGLVKPGGSLRLSCAASGFTFSSYSMNWVRQAPGKGLEWVSSISSSSSYIYYADSVKGRFTISRDNAKNSLYLQMNSLRAEDTAVYYCARGGYSYGYSFDYWGQGTLVTVSS
# VL: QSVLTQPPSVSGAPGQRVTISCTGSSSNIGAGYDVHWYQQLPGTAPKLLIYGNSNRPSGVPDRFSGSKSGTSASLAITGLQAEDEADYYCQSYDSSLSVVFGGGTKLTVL
# notes: full-length IgG
# B23: ADI-25542 (antibody, V domains shown)
# VH: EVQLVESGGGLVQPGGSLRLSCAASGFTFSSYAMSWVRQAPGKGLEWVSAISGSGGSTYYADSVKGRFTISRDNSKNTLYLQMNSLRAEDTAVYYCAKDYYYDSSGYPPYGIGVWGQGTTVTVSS
# VL: QTVVTQEPSFSVSPGGTVTLTCGLSSGSVSTSYYPSWYQQTPGQAPRTLIYSTNTRSSGVPDRFSGSILGNKAALTITGAQADDESDYYCVLYMGSGIWVFGGGTKVTVL
# notes: full-length IgG
# Target: T1, RSV postfusion F (postF), subtype A (respiratory syncytial virus subtype A, UniProt P03420 26-513)
# T1 construct: also called Postfusion subtype A; F deltaFP
# Experiment: BLI
row,Binder,binding result
1,B1,no binding
2,B2,no binding
3,B3,no binding
4,B4,no binding
5,B5,no binding
6,B6,no binding
7,B7,no binding
8,B8,no binding
9,B9,no binding
10,B10,no binding
11,B11,no binding
12,B12,no binding
13,B13,no binding
14,B14,no binding
15,B15,no binding
16,B16,no binding
17,B17,no binding
18,B18,no binding
19,B19,no binding
20,B20,no binding
21,B21,no binding
22,B22,no binding
23,B23,no binding

# Target: T2, RSV prefusion F (preF), subtype B (respiratory syncytial virus subtype B)
# T2 construct: also called Prefusion subtype B
# Experiment: BLI, IgG
row,Binder,Kd [nM]
1,B7,6.03
2,B10,36.7
3,B13,34.2
4,B22,26.3
